These are literature values, as cited in paper PMC5274714.

By Kd is commonly meant the free concentration of one partner at which half of the binding sites on the other are occupied at equilibrium, for simple one-to-one binding.

The series concerns the target human serum albumin (Homo sapiens) (UniProt P02768). Briefly: SPR.

Consider protein G ABD3 (from UniProt P19909), for which the Kd was 4 nM.
